Assay results reported in patent publication US20240239878A1 (SHANGHAI QILU PHARMACEUTICAL RESEARCH AND DEVELOPMENT CENTRE, published 2024).

T1: human DLL3 on SHP-77 cells (human, UniProt Q9NYJ7 27-618)
T1 construct: also called DLL3-expressing cells (SHP-77)
T1 sequence: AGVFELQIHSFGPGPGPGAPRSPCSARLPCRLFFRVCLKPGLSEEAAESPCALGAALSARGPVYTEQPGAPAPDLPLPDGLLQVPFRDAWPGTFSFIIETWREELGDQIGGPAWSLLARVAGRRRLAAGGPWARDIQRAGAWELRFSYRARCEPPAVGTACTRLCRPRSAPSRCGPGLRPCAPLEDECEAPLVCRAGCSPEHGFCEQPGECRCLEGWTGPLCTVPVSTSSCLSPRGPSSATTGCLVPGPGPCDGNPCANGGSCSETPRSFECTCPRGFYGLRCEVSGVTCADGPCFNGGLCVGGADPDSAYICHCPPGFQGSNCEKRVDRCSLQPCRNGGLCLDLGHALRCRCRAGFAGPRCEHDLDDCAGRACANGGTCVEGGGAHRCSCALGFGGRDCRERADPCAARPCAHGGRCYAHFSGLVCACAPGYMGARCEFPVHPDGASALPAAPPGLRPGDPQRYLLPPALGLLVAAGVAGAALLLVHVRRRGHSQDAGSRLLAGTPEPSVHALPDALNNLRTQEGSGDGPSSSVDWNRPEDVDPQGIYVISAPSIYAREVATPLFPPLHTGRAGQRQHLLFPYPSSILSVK

T2: Cynomolgus monkey DLL3 on HEK293 cells (HEK293-cyno DLL3) (Cynomolgus monkey, UniProt Q9NYJ7 27-618 (human entry))
T2 chain: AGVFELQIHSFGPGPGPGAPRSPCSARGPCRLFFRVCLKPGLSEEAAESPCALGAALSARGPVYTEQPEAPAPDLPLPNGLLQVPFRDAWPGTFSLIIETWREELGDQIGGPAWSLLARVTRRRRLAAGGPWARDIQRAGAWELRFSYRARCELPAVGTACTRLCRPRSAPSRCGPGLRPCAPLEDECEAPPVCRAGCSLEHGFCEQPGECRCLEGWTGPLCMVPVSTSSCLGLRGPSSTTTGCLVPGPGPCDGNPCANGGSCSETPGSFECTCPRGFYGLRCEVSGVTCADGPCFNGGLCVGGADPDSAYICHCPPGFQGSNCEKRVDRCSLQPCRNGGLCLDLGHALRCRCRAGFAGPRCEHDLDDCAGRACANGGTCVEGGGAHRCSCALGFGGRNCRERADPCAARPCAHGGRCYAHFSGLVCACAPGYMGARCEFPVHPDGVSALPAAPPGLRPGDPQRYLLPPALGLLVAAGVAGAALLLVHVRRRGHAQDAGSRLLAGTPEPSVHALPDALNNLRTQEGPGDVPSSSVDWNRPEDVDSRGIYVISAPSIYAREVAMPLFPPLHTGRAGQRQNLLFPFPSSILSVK


What was measured:
[1] = biological target: T1, human DLL3 on SHP-77 cells; assay: flow cytometry, SHP-77 cells
Experimental: (§1) Monoclonal selection was performed, and the expression level of DLL3 protein in the monoclonal cells were identified by flow cytometry. The culture was expanded and stored in storage for later use. SHP-77 and HEK293-cyno DLL3 cells were cultured. The culture medium for SHP-77 cells were RPMI1640+10% FBS, and the culture medium for HEK293 cyno DLL3 cells were DMEM+10% FBS+200 μg/ml Hygromycin. The cells were cultured in a T75 cell culture flask at a 37° ° C. in a 5% CO₂ incubator. When using cells, they are washed with sterile DPBS, digested with 0.25% trypsin EDTA for about 5 minutes, and then stopped with a complete medium.
(§2) The digested cells were centrifuged at 1000 rpm for 5 min at room temperature. The supernatant was discarded and the cells were resuspended in 100 μL of 1% BSA (in PBS). The cells were counted and adjusted to a cell density of 1E6/m. The dilute cells were seeded in a 96-well round-bottom culture plate (corning 3799), and centrifuged at 1500 rpm for 5 min at 4° C. The supernatant was discarded and the cells were stored at 4° C. until use. Antibody samples to be tested were diluted with 1% BSA (in PBS) at a starting concentration of 100 nM, downwards by a 10-fold gradient for 7 concentrations. The cells were resuspended with the diluted antibody at 100 μL/well and incubated for 1 hour at 4° C. The cells were centrifuged at 1500 rpm for 5 minutes at 4° C. and the supernatant was discarded. The cells were resuspended and washed with 160 μL of 1% BSA (in PBS), centrifuged at 1500 rpm for 5 minutes at 4° C. The supernatant was discarded. The secondary antibody (goat anti human IgG Fc PE) was diluted 1:200 with 1% BSA (in PBS) according to the manufacturer's instructions and the cells were resuspended with the diluted secondary antibody. 100 μL/well, and incubated for 0.5 h at 4° C. The cells were centrifuged at 1500 rpm for 5 minutes at 4° C. and the supernatant was discarded. The cells were resuspended and washed with 160 μL of 1% BSA (in PBS), centrifuged at 1500 rpm for 5 minutes at 4° C. The supernatant was discarded. The cells were resuspended in 100 μL of 1% BSA (in PBS), and filtered across a 300 mesh gauze. The mean fluorescence intensity of the PE channels was measured by flow cytometry.

[2] = biological target: T2, Cynomolgus monkey DLL3 on HEK293 cells …; assay: flow cytometry, HEK293-cyno DLL3 cells
Experimental: as §1, §2

[3] = biological target: T3, human DLL4 (Sino Biological, Cat. No. 10171-H08H) (human, UniProt Q9NR61 27-529); assay: ELISA, plate coated with human DLL4 at 1 ug/mL, OD 450nm
T3 construct: also called family protein DLL4
T3 sequence (Q9NR61 27-529 limits assumed): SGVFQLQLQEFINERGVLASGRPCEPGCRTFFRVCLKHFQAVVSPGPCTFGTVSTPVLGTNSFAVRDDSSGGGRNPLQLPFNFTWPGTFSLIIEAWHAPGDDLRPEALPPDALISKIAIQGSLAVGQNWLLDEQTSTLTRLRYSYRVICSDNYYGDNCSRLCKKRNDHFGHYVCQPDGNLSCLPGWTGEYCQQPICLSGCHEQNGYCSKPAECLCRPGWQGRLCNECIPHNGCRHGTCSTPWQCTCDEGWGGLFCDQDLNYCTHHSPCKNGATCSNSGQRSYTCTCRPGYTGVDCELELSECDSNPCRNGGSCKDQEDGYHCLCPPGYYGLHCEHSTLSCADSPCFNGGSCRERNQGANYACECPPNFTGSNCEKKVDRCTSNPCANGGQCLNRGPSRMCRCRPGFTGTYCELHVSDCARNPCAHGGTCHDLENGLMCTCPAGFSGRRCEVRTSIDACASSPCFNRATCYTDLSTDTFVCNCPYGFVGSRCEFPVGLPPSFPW
Experimental: The antigenic proteins human DLL1 (SinoBiological, cat. No. 11635-H08H) or human DLL4 (SinoBiological, cat. No. 10171-H08H) were dissolved in 1×PBS at a concentration of 1 μg/mL. […] The antigen was washed three times with PBST, 300 μL/well. The antigen was blocked with 1% BSA (in PBST), 200 µL/well, and incubated at 37° C. for 1.5 hours.
Antibodies to be tested were diluted with 1% BSA (in PBS) at a starting concentration of 100 nM, downwards by a 10-fold gradient for 7 concentrations. The plates were washed three times with PBST, 300 μL/well. The diluted antibody was added to an ELISA plate at 100 μL/well and incubated at room temperature for 2 hours. The antibodies were washed three times with PBST, 300 μL/well. The secondary antibodies (goat anti-human IgG Fc for DLL4 (HRP), 1:20000 dilution; HRP goat anti-mouse IgG (H+L) for DLL1, 1:10000 dilution) were diluted with 1% BSA in PBST. The diluted secondary antibodies were added to the ELISA plate at 100 μL/well and incubated at room temperature for 1 hour. The plates were washed 6 times with PBST, 300 μL/well. The developing solution (TMA and TMB 1:1 mixed) was prepared. The developing solution was added to the plate, 100 μL/well, and incubated in the dark for 5 min. 50 μL of ELISA stop solution was added to the plate and shaken well.

Row | EC50 [1] | Top MFI [1] | EC50 [2] | Top MFI [2] | binding result [3] | Binder
1 | 0.427 nM | 846 MFI | 0.415 nM | 460 MFI | – | DLL3-122 camelid-derived anti-DLL3 chimeric antibody (antibody, human IgG1, V domains shown) VH: QVQLVESGGGSVQAGGSLRLSCTASGDTYRSYCMGWFRKAPGKEREGVADIVSDGSTSYADSVKGRFTISKDNAKNTLYLQMNSLKPEDTAMYYCAVDRGGSGGYCYTGRYDYWGQGTQVTVSS
2 | 0.519 nM | 821 MFI | 0.439 nM | 450 MFI | – | DLL3-26 camelid-derived anti-DLL3 chimeric antibody (antibody, human IgG1, V domains shown) VH: QVQLVESGGGSVQAGGSLRLSCAASGDIYSSSYVGWFRQAPGKEREGVAIIYTSGDSTYYANSVKGRFTISQDKAKKTLYLQMNSLKPEDTAMYYCAARFAIDNSNYWGQGTQVTVSS
3 | 0.047 nM | 874 MFI | 0.025 nM | 438 MFI | – | DLL3-3 camelid-derived anti-DLL3 chimeric antibody (antibody, human IgG1, V domains shown) VH: DVQLVESGGGSVQAGGSLKLSCKSPTYTISSGYMGWFRQAPGKEREGVAAIYIGGSTTLYADSVKGRFTISADNAEKTVYLQMNTLKPEDSAMYYCAAQLRPNSAYHPLDGRKYNYWGQGTQVTVSS
4 | – | – | – | – | no binding (tested: 100 nM) | H2-39E2D11 mouse hybridoma-derived humanized anti-DLL3 antibody (antibody, V domains shown) VH: QVQLVQSGAEVKKPGASVKVSCKASGYTFISYWITWVRQAPGQGLEWMGDIYPGSGSTTNYNEKFKSRVTMTRDTSTSTVYMELSSLRSEDTAVYYCARETTVGGAYAMDYWGQGTLVTVSS VL: EIVLTQSPATLSLSPGERATLSCRASQSINNNLHWYQQKPGQAPRLLIKYVSQSISGIPARFSGSGSGTDFTLTISSLEPEDFAVYYCQQTNSWPLTFGGGTKLEIK
